In patent US8383806B2, “Method of reversing carboplatin resistance by inhibition of HGFIN” (University of Medicine and Dentistry of New Jersey, priority 2000, dated 2013):

Assays:
[1] = tested on: cancer stem cells from breast cancer cell lines; experiment: Drug exposure of breast cancer stem cell clones; format: cell-based; conditions: selected clones
Method: Breast cancer cells are cultured in the presence of each or combinations of the anti-cancer agents 5-FU, Methothrexate, and Cytarabine. […] Cells are passaged at least 5 times in high concentrations of anti-cancer drugs. […] Breast cancer cells were subjected to rounds of exposure to 5-fluorouracil (5-FU), methotrexate, and cytarabine.

[2] = target: T1, Fibronectin-Fragment III-C (FN-IIIC) (Homo sapiens, UniProt P02751); experiment: SELDI ProteinChip (PS1) positive control, FN-IIIC and SP; format: binding; conditions: FN-IIIC covalently coated
T1 construct: 20 ng fibronectin, fragment III-C (positive control); purchased Sigma (St Louis, Mo.)
T1 sequence (P02751 627-702 limits assumed): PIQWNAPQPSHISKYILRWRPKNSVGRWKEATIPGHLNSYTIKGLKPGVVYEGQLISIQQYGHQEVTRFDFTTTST
Method: HGFIN-SP interaction was studied by pre-treating the PS1 chips with 50% acetonitrile for 3 minutes. After this, the chips were incubated for 45 minutes with the following: 2.5 μg HGFIN (experimental sample), anti-Id2, an unrelated IgG regarding its ability to complex with SP and was therefore treated as a negative control, rabbit anti-SP (positive control) or 20 ng fibronectin, fragment III-C (positive control). The arrays were blocked for 25 minutes with 1 M ethanolamine and washed with PBS+0.5% TRITON-X (2×) and a final PBS wash step. After this the chips were washed with PBS+TRITON-X, PBS, rinsed with 5 mM HEPES and then dried. CHCA was applied and the non-covalently bound SP was detected with the SELDI-Time of Flight Mass spectrometer as described for the profiling studies for HGFIN.
Fibronectin has been reported to bind SP. Therefore, this property of fibronectin was used as a positive control for SP interaction on the SELDI system. […] Similar results were shown with another positive control: rabbit anti-SP (covalently bound) and SP. No peak was detected in two negative controls, which consisted of bovine serum albumin or an unrelated antibody (anti-Id2) covalently bound to the surface of PS1.

HGFIN = target: T2, HGFIN (Homo sapiens, UniProt Q14956); experiment: SELDI ProteinChip (PS1) HGFIN-SP interaction; format: binding; conditions: HGFIN covalently bound to PS1 chip, SP added
T2 construct: made in house
T2 sequence (Q14956 23-560 isoform Q14956-2): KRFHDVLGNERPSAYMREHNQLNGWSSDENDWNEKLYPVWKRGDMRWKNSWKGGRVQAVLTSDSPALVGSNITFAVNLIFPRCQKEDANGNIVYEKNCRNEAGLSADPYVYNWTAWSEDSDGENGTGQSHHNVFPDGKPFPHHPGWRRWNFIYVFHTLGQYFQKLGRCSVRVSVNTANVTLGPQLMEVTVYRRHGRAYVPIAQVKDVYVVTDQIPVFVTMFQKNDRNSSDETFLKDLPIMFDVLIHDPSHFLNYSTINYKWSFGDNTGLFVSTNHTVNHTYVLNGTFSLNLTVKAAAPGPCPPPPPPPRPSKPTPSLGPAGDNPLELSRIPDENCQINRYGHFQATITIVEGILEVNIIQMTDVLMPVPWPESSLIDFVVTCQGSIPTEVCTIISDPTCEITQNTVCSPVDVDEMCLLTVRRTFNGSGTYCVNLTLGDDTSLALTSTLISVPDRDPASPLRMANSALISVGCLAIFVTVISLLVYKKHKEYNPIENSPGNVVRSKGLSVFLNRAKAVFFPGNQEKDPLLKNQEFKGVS
Method: Before studying the interaction between SP and HGFIN, each protein was profiled by the Surface Enhanced Laser Desorption/Ionization (SELDI) ProteinChip Array technology (Ciphergen Biosystems Inc., Fremont, Calif.). Normal phase (NP1) arrays were used for profiling and preactivated surface arrays (PS1) for HGFIN-SP interaction. For profiling studies, 2 μg of purified HGFIN or 2 μg of SP were spotted directly onto the NP1 arrays. Prior to adding of the proteins, chips were pre-wet with PBS. Arrays were incubated at room temperature until the protein was absorbed, which took approximately 5 to 10 minutes. […] Chips were immediately analyzed using linear, time-lag focusing laser desorption/ionization SELDI-time-of-flight mass spectrometer (Model PBS II). Accurate mass was determined by collecting approximately 150 averaged laser shots. […]
HGFIN-SP interaction was studied by pre-treating the PS1 chips with 50% acetonitrile for 3 minutes. […] CHCA was applied and the non-covalently bound SP was detected with the SELDI-Time of Flight Mass spectrometer as described for the profiling studies for HGFIN.
Protein-protein interactions were performed with the PS1 protein chip since this chip was determined to covalently bind HGFIN. SP was added to the chip and then detected with the SELDI system.

Compound: O=c1[nH]cc(F)c(=O)[nH]1 [5-FU, 5-fluorouracil]
- response of cancer stem cells to the drug [1]: resistant

Compound: Substance P [SP]
- SP detected on FN-IIIC-coated PS1 chip (SELDI) [2]: single peak at ˜13000 Da
- non-covalently bound SP detected on HGFIN-coated PS1 chip (SELDI) (HGFIN): single peak at ˜13000 Da
